Reference: patent publication US20250197923

What was measured:
Bst 2.0 = conditions: RT-LAMP time at 10000 copies RNA; 8 mM MgSO4, 50 mM KCl, pH 8.8; none at 100 copies
[1] = system: BD009-SDpol-1 (synthetic construct); conditions: RT-LAMP time at 10000 copies RNA; 7 mM MgSO4, 50 mM KCl, pH 8.8; 18.6 min at 10 copies

## SARS-CoV-2 gene N LAMP target
Bst 2.0
  activity: 30 min
[1]
  activity: 8.7 min
